According to publication doi:10.1101/2024.03.21.586141, “Delving into human α1,4-galactosyltransferase acceptor specificity: the role of enzyme dimerization” (bioRxiv, 2024):
Positions count from the first letter of the chain named. Names may count otherwise.

T1: human β1,4-galactosyltransferase 5 isoenzyme (B4galt5) (human, UniProt O43286 1-388)
T1 construct: human β1,4-galactosyltransferase 5, ORF of GenBank NM_004776.4 nucleotides 189-1355 (388 codons and stop); Synthetic ORF (Thermo Fisher) recloned into pBiT1.1-N/C and pBiT2.1-N/C; also called N-Lg-B4galt5; C-Lg-B4galt5; source: HEK293T or CHO-Lec2 cells, transfected (PEI), in live cells; not shown: LgBiT or SmBiT (NanoLuc subunit), N-terminal or C-terminal, kept
T1 sequence (looked up): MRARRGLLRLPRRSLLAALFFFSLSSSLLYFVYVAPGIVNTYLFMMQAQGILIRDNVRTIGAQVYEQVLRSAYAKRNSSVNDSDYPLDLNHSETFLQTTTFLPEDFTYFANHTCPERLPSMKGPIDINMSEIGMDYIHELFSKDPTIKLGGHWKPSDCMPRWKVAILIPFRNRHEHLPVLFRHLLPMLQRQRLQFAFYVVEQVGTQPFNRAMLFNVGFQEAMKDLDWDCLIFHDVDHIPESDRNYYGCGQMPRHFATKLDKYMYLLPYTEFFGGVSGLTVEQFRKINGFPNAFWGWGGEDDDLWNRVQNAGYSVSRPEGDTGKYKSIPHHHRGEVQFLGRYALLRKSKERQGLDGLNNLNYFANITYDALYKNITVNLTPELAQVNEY

T2: human β1,4-galactosyltransferase 1 (B4galt1) (human, UniProt P15291-2 1-385)
T2 construct: human β1,4-galactosyltransferase 1, ORF of GenBank NM_001378495.1 nucleotides 30-1187 (1158 nt: 385 codons and stop); Synthetic ORF (Thermo Fisher) recloned into pBiT1.1-N/C and pBiT2.1-N/C; also called N-Lg-B4galt1; C-Lg-B4galt1; source: HEK293T or CHO-Lec2 cells, transfected (PEI), in live cells; not shown: LgBiT or SmBiT (NanoLuc subunit), N-terminal or C-terminal, kept
T2 sequence (looked up): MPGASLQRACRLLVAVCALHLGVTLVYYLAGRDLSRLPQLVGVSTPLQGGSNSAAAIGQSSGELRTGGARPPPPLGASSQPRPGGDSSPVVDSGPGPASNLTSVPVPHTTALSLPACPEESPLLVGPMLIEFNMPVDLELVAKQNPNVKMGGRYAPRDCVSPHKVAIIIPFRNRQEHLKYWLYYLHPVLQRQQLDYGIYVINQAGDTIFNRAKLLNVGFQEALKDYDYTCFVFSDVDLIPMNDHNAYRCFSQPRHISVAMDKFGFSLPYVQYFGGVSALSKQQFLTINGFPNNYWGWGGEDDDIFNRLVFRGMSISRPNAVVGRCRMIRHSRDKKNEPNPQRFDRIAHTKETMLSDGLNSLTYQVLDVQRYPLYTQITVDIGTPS

B1: human α1,4-galactosyltransferase (A4galt), high-frequency enzyme (p.Q211) (enzyme, UniProt Q9NPC4 1-353, looked up)
chain: MSKPPDLLLRLLRGAPRQRVCTLFIIGFKFTFFVSIMIYWHVVGEPKEKGQLYNLPAEIPCPTLTPPTPPSHGPTPGNIFFLETSDRTNPNFLFMCSVESAARTHPESHVLVLMKGLPGGNASLPRHLGISLLSCFPNVQMLPLDLRELFRDTPLADWYAAVQGRWEPYLLPVLSDASRIALMWKFGGIYLDTDFIVLKNLRNLTNVLGTQSRYVLNGAFLAFERRHEFMALCMRDFVDHYNGWIWGHQGPQLLTRVFKKWCSIRSLAESRACRGVTTLPPEAFYPIPWQDWKKYFEDINPEELPRLLSATYAVHVWNKKSQGTRFEATSRALLAQLHARYCPTTHEAMKMYL
notes: human α1,4-galactosyltransferase, high-frequency variant with Q at position 211; full-length A4GALT gene from pCAG-A4GALT, GenBank NM_001318038.3 nucleotides 325-1386 (353 codons and stop); Four fusions were made (LgBiT or SmBiT at the N- or C-terminus, vectors pBiT1.1-N/C and pBiT2.1-N/C); every protein stood as LgBiT and as SmBiT fusion; also called Gb3/CD77 synthase; P1/Pk synthase; source: …
B2: human α1,4-galactosyltransferase (A4galt), mutein with p.Q211E substitution (enzyme, UniProt Q9NPC4 1-353, looked up)
chain: B1 chain with Q211E
notes: human α1,4-galactosyltransferase, rare natural variant p.Q211E (c.631C>G, rs397514502); full-length A4GALT gene from pCAG-A4GALT, GenBank NM_001318038.3 nucleotides 325-1386; Four fusions were made (LgBiT or SmBiT at the N- or C-terminus); also called mutein human A4galt; rare enzyme variant; source: HEK293T or CHO-Lec2 cells, transfected (PEI), in live cells; not shown: LgBiT or SmBiT (NanoLuc …)

How the values were obtained:
Conditions in all cases: partners not purified
[1] = molecular target: T1, human β1,4-galactosyltransferase 5 …; assay: split reporter (BiFC, NanoBiT); NanoBiT in live CHO-Lec2 cells, co-transfected with LgBiT and SmBiT fusions (N- or C-terminal, 25 ng of each plasmid a well), Nano-Glo Live Cell Substrate in Opti-MEM; fold of luminescence over LgBiT fusion with HaloTag-SmBiT, threshold 10-fold
[2] = molecular target: T2, human β1,4-galactosyltransferase 1 …; assay: as above
[3] = molecular target: T2, human β1,4-galactosyltransferase 1 …; assay: split reporter (BiFC, NanoBiT); NanoBiT in live HEK293T cells, co-transfected with LgBiT and SmBiT fusions (N- or C-terminal, 25 ng of each plasmid a well), Nano-Glo Live Cell Substrate in Opti-MEM; fold of luminescence over LgBiT fusion with HaloTag-SmBiT, threshold 10-fold

| fold of luminescence over the negative control [1] | fold of luminescence over the negative control [2] | fold of luminescence over the negative control [3] | Binder |
| --- | --- | --- | --- |
| 300 times | 90 times | ~60 times | B1 |
| ~1000 times | 360 times | ~30 times | B2 |
